Consider 45 sequences from the supplement of paper PMC10724198.

For series [1], the system named is Saccharomyces cerevisiae. Description: protein stability index of tFT-peptide fusion in wild type (PSI (0-1 scale)); higher = more stable (slower turnover). The following applies: genetic background: wild type.
The subject of series [2] is Saccharomyces cerevisiae. Briefly: protein stability index of tFT-peptide fusion in deletion strain of DOA10 (PSI (0-1 scale)); higher = more stable (slower turnover). As to the method:
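MPS profiling in S. cerevisiae of two library types built from selected 12-aa C-degron peptides (IN1, IN2, LN1, LN3, VN2, R1-R5, W1-W3, Atg1 and Rpa12 C-termini): saturation mutagenesis libraries and C-terminal +1 capping libraries (13 aa). Each peptide is fused to the C-terminus of a sfGFP-mCherry timer, after a GGGS linker. Cells are FACS-sorted into 8 mCherry/sfGFP bins and sequenced. PSI runs from 0 (unstable) to 1 (stable), measured once in wild type and in the das1Δ or doa10Δ background.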
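For protein stability index of tFT-peptide fusion in deletion strain of DOA10 in this document: PSI per variant is the weighted mean of its sequencing read distribution over the sorted stability bins, counting only variants with over 10 reads summed across bins.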
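For protein stability index of tFT-peptide fusion in wild type in this document: PSI derived as read-weighted mean over the 8 sorting bins, only variants exceeding 10 total reads kept, mCherry placed adjacent to the peptide and sfGFP distal.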

With GLYMCSVGCWFM, the protein stability index came to 0.543 with Saccharomyces cerevisiae [1] and 0.586 in the series on Saccharomyces cerevisiae [2].

For GLYMCSVPCWFR, the protein stability index in the series on Saccharomyces cerevisiae [1] was 0.646; with Saccharomyces cerevisiae [2], 0.682.

For the sequence GLYMCSVWCWFR, the protein stability index in the series on Saccharomyces cerevisiae [1] is 0.305; with Saccharomyces cerevisiae [2] it was 0.399.

With GLYMPSVGCWFR, the protein stability index is 0.196 in the series with Saccharomyces cerevisiae [1] and 0.683 in the series with Saccharomyces cerevisiae [2].

As to GLYMRSVGCWFR, the protein stability index in the series on Saccharomyces cerevisiae [1] worked out at 0.252; in the series on Saccharomyces cerevisiae [2] it was 0.688.

Regarding GLYMSSVGCWFR, the protein stability index worked out at 0.299 with Saccharomyces cerevisiae [1] and 0.688 in the series with Saccharomyces cerevisiae [2].

GLYMYSVGCWFR: the results for the protein stability index in the series with Saccharomyces cerevisiae [1] and in the series with Saccharomyces cerevisiae [2] were 0.238 and 0.605, respectively.

For the sequence GLYPCSVGCWFR, the protein stability index in the series on Saccharomyces cerevisiae [1] was 0.394; in the series with Saccharomyces cerevisiae [2], 0.678.

With GQYMCSVGCWFR, the protein stability index in the series on Saccharomyces cerevisiae [1] stood at 0.363; in the series on Saccharomyces cerevisiae [2], 0.673.

Take GWYMCSVGCWFR: the protein stability index was found to be 0.168 with Saccharomyces cerevisiae [1] and 0.601 with Saccharomyces cerevisiae [2].

With HLVSLPILLFFR, the protein stability index with Saccharomyces cerevisiae [1] was 0.108; in the series on Saccharomyces cerevisiae [2], 0.618.

For HSLRVLLPLYFR, the protein stability index with Saccharomyces cerevisiae [1] amounted to 0.309; in the series on Saccharomyces cerevisiae [2], 0.669.

On to KLYMCSVGCWFR, for which the protein stability index is 0.349 in the series with Saccharomyces cerevisiae [1] and 0.654 with Saccharomyces cerevisiae [2].

Consider KVTRLDAIYFRI, for which the values for the protein stability index with Saccharomyces cerevisiae [1] and in the series on Saccharomyces cerevisiae [2] were 0.251 and 0.67, respectively.

LLYMCSVGCWFR: the protein stability index was determined as 0.348 in the series with Saccharomyces cerevisiae [1] and 0.571 in the series with Saccharomyces cerevisiae [2].

As for LSLRVLLPLYFR, the protein stability index in the series on Saccharomyces cerevisiae [1] was found to be 0.311; in the series with Saccharomyces cerevisiae [2] it was 0.616.

For the sequence MLVSLPILLFFR, the protein stability index was 0.089 in the series with Saccharomyces cerevisiae [1] and 0.565 in the series on Saccharomyces cerevisiae [2].

As to NITLPMCPLLLR, the figures for the protein stability index in the series with Saccharomyces cerevisiae [1] and in the series on Saccharomyces cerevisiae [2] were 0.359 and 0.664, respectively.

As for RDLRVLLPLYFR, the protein stability index in the series with Saccharomyces cerevisiae [1] stood at 0.295; with Saccharomyces cerevisiae [2], 0.675.

On to RFLRVLLPLYFR, for which the figures for the protein stability index with Saccharomyces cerevisiae [1] and in the series with Saccharomyces cerevisiae [2] were 0.381 and 0.666, respectively.

For RPTRLDAIYFRI, the protein stability index with Saccharomyces cerevisiae [1] was 0.504; in the series on Saccharomyces cerevisiae [2], 0.666.

Regarding RSERVLLPLYFR, the protein stability index in the series on Saccharomyces cerevisiae [1] amounted to 0.365; in the series on Saccharomyces cerevisiae [2], 0.674.

On to RSGRVLLPLYFR, for which the protein stability index was found to be 0.372 with Saccharomyces cerevisiae [1] and 0.665 with Saccharomyces cerevisiae [2].

As to RSLPVLLPLYFR, the figures for the protein stability index in the series with Saccharomyces cerevisiae [1] and with Saccharomyces cerevisiae [2] were 0.186 and 0.672, respectively.

For the sequence RSLRCLLPLYFR, the protein stability index worked out at 0.408 with Saccharomyces cerevisiae [1] and 0.681 with Saccharomyces cerevisiae [2].

Turning to RSLRKLLPLYFR, the protein stability index in the series with Saccharomyces cerevisiae [1] was 0.474; with Saccharomyces cerevisiae [2] it was 0.67.

Regarding RSLRVLDPLYFR, the protein stability index in the series with Saccharomyces cerevisiae [1] worked out at 0.556; in the series with Saccharomyces cerevisiae [2], 0.721.

Regarding RSLRVLLELYFR, the protein stability index in the series with Saccharomyces cerevisiae [1] amounted to 0.557; with Saccharomyces cerevisiae [2], 0.593.

As to RSLRVLLPLWFR, the protein stability index in the series on Saccharomyces cerevisiae [1] amounted to 0.459; in the series on Saccharomyces cerevisiae [2], 0.67.

With RSLRVLLPLYDR, the protein stability index in the series on Saccharomyces cerevisiae [1] stood at 0.652; in the series with Saccharomyces cerevisiae [2] it was 0.708.

Consider RSLRVLLPLYFRN, for which the protein stability index with Saccharomyces cerevisiae [1] was 0.204; in the series with Saccharomyces cerevisiae [2] it was 0.5.

RSLRVLLPLYGR: the protein stability index came to 0.595 in the series with Saccharomyces cerevisiae [1] and 0.642 with Saccharomyces cerevisiae [2].

Consider RSLRVLLPLYVR, for which the protein stability index in the series on Saccharomyces cerevisiae [1] was determined as 0.202; in the series with Saccharomyces cerevisiae [2], 0.35.

As for RSLRVLLWLYFR, the protein stability index stood at 0.166 in the series with Saccharomyces cerevisiae [1] and 0.524 with Saccharomyces cerevisiae [2].

As to RSLRVLLYLYFR, the figures for the protein stability index with Saccharomyces cerevisiae [1] and in the series on Saccharomyces cerevisiae [2] were 0.235 and 0.479, respectively.

On to RSLRVLSPLYFR, for which the results for the protein stability index with Saccharomyces cerevisiae [1] and in the series with Saccharomyces cerevisiae [2] were 0.308 and 0.691, respectively.

As for RSLRVRLPLYFR, the protein stability index came out at 0.187 with Saccharomyces cerevisiae [1] and 0.675 in the series on Saccharomyces cerevisiae [2].

In the case of RSNRVLLPLYFR, the figures for the protein stability index in the series on Saccharomyces cerevisiae [1] and in the series on Saccharomyces cerevisiae [2] were 0.334 and 0.701, respectively.

In the case of RSQRVLLPLYFR, the protein stability index was 0.308 in the series on Saccharomyces cerevisiae [1] and 0.705 with Saccharomyces cerevisiae [2].

Take RSVRVLLPLYFR: the protein stability index in the series on Saccharomyces cerevisiae [1] was found to be 0.238; in the series on Saccharomyces cerevisiae [2], 0.661.

Take RVKRLDAIYFRI: the protein stability index was determined as 0.392 in the series on Saccharomyces cerevisiae [1] and 0.64 in the series on Saccharomyces cerevisiae [2].

Regarding RVTELDAIYFRI, the protein stability index with Saccharomyces cerevisiae [1] is 0.633; in the series on Saccharomyces cerevisiae [2], 0.64.

On to RVTRHDAIYFRI, for which the protein stability index in the series with Saccharomyces cerevisiae [1] came out at 0.517; in the series with Saccharomyces cerevisiae [2], 0.689.

On to RVTRLDAIAFRI, for which the results for the protein stability index with Saccharomyces cerevisiae [1] and in the series on Saccharomyces cerevisiae [2] were 0.673 and 0.708, respectively.

Regarding RVTRLDAICFRI, the protein stability index with Saccharomyces cerevisiae [1] stood at 0.656; with Saccharomyces cerevisiae [2], 0.713.
